Test results from the Human Domainome abundance scans (Beltran et al. 2025).
± gives the uncertainty stated by the source.

B1: SWI/SNF complex subunit SMARCC1, residues 620 to 663; numbered along this chain, Q92922 (parent)
chain: GREWTEQETLLLLEALEMYKDDWNKVSEHVGSRTQDECILHFLR

Variants of: B1
Test: abundance fitness (aPCA) (normalised: wild type 0, dead -1); higher = more abundant; growth selection in yeast, the domain comes from the species named
Conditions: Homo sapiens
GREWTEQETLLLLEALEMYKDDWNKVSEHVGSRTQDECKLHFLR [I39K] gave an abundance fitness of 0.564 ± 0.081. In the case of GREWTEQETLLLLEALEMYKDDWNKVSEHVGSRTQDECWLHFLR [I39W], the abundance fitness is reported as -0.333 ± 0.15. For GREWTEQETLLLLEALEMYKDDWNKVSEHVGSRTQDECYLHFLR [I39Y], the abundance fitness was 0.117 ± 0.074. In the case of GREWTEQETLLLLEALEMYKDDWNKVSEHVGSRTQDECLLHFLR [I39L], the abundance fitness is reported as 0.142 ± 0.051. Variant GREWTEQETLLLLEALEMYKDDWNKVSEHVGSRTQDECRLHFLR [I39R] has an abundance fitness of 0.456 ± 0.049. GREWTEQETLLLLEALEMYKDDWNKVSEHVGSRTQDECNLHFLR [I39N] showed an abundance fitness of 0.35 ± 0.076. With GREWTEQETLLLLEALEMYKDDWNKVSEHVGSRTQDECPLHFLR [I39P] the abundance fitness was -0.378 ± 0.085. In the case of GREWTEQETLLLLEALEMYKDDWNKVSEHVGSRTQDECELHFLR [I39E], the abundance fitness is reported as 0.513 ± 0.082. Work on GREWTEQETLLLLEALEMYKDDWNKVSEHVGSRTQDECFLHFLR [I39F] yielded an abundance fitness of -0.043 ± 0.065. With GREWTEQETLLLLEALEMYKDDWNKVSEHVGSRTQDECGLHFLR [I39G] the abundance fitness was -0.004 ± 0.064. With GREWTEQETLLLLEALEMYKDDWNKVSEHVGSRTQDECILHGLR [F42G] the abundance fitness was 0.307 ± 0.073. With GREWTEQETLLLLEALEMYKDDWNKVSEHVGSRTQDECILHELR [F42E] the abundance fitness was 0.767 ± 0.18. In the case of GREWTEQETLLLLEALEMYKDDWNKVSEHVGSRTQDECILHALR [F42A], the abundance fitness is reported as 0.053 ± 0.088. For GREWTEQETLLLLEALEMYKDDWNKVSEHVGSRTQDECILHSLR [F42S], the abundance fitness was 0.25 ± 0.092. For GREWTEQETLLLLEALEMYKDDWNKVSEHVGSRTQDECILHKLR [F42K], the abundance fitness was 0.592 ± 0.087. For GREWTEQETLLLLEALEMYKDDWNKVSEHVGSRTQDECILHMLR [F42M], the abundance fitness was -0.2 ± 0.14. Work on GREWTEQETLLLLEALEMYKDDWNKVSEHVGSRTQDECILHRLR [F42R] yielded an abundance fitness of 0.337 ± 0.083. With GREWTEQETLLLLEALEMYKDDWNKVSEHVGSRTQDECILHWLR [F42W] the abundance fitness was 0.401 ± 0.089. Work on GREWTEQETLLLLEALEMYKDDWNKVSEHVGSRTQDECILHYLR [F42Y] yielded an abundance fitness of 0.349 ± 0.13. Work on GREWTEQETLLLLEALEMYKDDWNKVSEHVGSRTQDECILHNLR [F42N] yielded an abundance fitness of 0.429 ± 0.11. Variant GREWTEQETLLLLEALEMYKDDWNKVSEHVGSRTQDECILHLLR [F42L] has an abundance fitness of -0.29 ± 0.073. GREWTEQETLLLLEALEMYKDDWNKVSEHVGSRTQDECILHPLR [F42P] showed an abundance fitness of 0.405 ± 0.092. For GREWTEQETLLLLEALEMYKDDWNKVSEHVGSRTQDECILHVLR [F42V], the abundance fitness was -0.134 ± 0.11. For GREWTEQETLLLLEALEMYKDDWNKVSEHVGSRTQDECILHTLR [F42T], the abundance fitness was -0.007 ± 0.26. In the case of GREWTEQETLLLLEALEMYKDDWNKVSEHVGSRTQDECILHCLR [F42C], the abundance fitness is reported as -0.286 ± 0.15. In the case of GREWTEQETLLLLEALEMYKDDWNKVSEHVGSRTQDHCILHFLR [E37H], the abundance fitness is reported as -0.668 ± 0.14. In the case of GREWTEQETLLLLEALEMYKDDWNKVSEHVGSRTQDACILHFLR [E37A], the abundance fitness is reported as -0.283 ± 0.1. For GREWTEQETLLLLEALEMYKDDWNKVSEHVGSRTQDSCILHFLR [E37S], the abundance fitness was -0.533 ± 0.14. For GREWTEQETLLLLEALEMYKDDWNKVSEHVGSRTQDVCILHFLR [E37V], the abundance fitness was -1.01 ± 0.23. Variant GREWTEQETLLLLEALEMYKDDWNKVSEHVGSRTQDRCILHFLR [E37R] has an abundance fitness of -0.63 ± 0.15. Work on GREWTEQETLLLLEALEMYKDDWNKVSEHVGSRTQDQCILHFLR [E37Q] yielded an abundance fitness of -0.303 ± 0.18. Work on GREWTEQETLLLLEALEMYKDDWNKVSEHVGSRTQDLCILHFLR [E37L] yielded an abundance fitness of -1.08 ± 0.24. In the case of GREWTEQETLLLLEALEMYKDDWNKVSEHVGSRTQDTCILHFLR [E37T], the abundance fitness is reported as -0.738 ± 0.13. GREWTEQETLLLLEALEMYKDDWNKVSEHVGSRTQDPCILHFLR [E37P] showed an abundance fitness of -0.846 ± 0.18. With GREWTEQETLLLLEALEMYKDDWNKVSEHVGSRTQDFCILHFLR [E37F] the abundance fitness was -1.02 ± 0.37. For GREWTEQETLLLLEALEMYKDDWNKVSEHVGSRTQDDCILHFLR [E37D], the abundance fitness was 0.021 ± 0.11. In the case of GREWTEQETLLLLEALEMYKDDWNKVSEHVGSRTQDMCILHFLR [E37M], the abundance fitness is reported as -0.4 ± 0.23. For GREWTEQETLLLLEALEMYKDDWNKVSEHVGSRTQDGCILHFLR [E37G], the abundance fitness was -0.722 ± 0.21. GREWTEQETLLLLEALEMYKDDWNKVSEHVGSRTQDNCILHFLR [E37N] gave an abundance fitness of -0.717 ± 0.41. Work on GREWTEQETLLLLEALEMYKDDWNKVSEHVGSRTQDKCILHFLR [E37K] yielded an abundance fitness of -0.546 ± 0.23. In the case of GREWTEQETLLLLEALEMYKDDWNKVSEHVGSRTQDECINHFLR [L40N], the abundance fitness is reported as 0.135 ± 0.069. GREWTEQETLLLLEALEMYKDDWNKVSEHVGSRTQDECIAHFLR [L40A] gave an abundance fitness of 0.28 ± 0.066. Work on GREWTEQETLLLLEALEMYKDDWNKVSEHVGSRTQDECITHFLR [L40T] yielded an abundance fitness of 0.206 ± 0.057. Work on GREWTEQETLLLLEALEMYKDDWNKVSEHVGSRTQDECIEHFLR [L40E] yielded an abundance fitness of 0.122 ± 0.1. Work on GREWTEQETLLLLEALEMYKDDWNKVSEHVGSRTQDECIDHFLR [L40D] yielded an abundance fitness of 0.319 ± 0.058. With GREWTEQETLLLLEALEMYKDDWNKVSEHVGSRTQDECIKHFLR [L40K] the abundance fitness was 0.171 ± 0.083. Variant GREWTEQETLLLLEALEMYKDDWNKVSEHVGSRTQDECIGHFLR [L40G] has an abundance fitness of 0.049 ± 0.089. GREWTEQETLLLLEALEMYKDDWNKVSEHVGSRTQDECIMHFLR [L40M] gave an abundance fitness of 0.057 ± 0.13. GREWTEQETLLLLEALEMYKDDWNKVSEHVGSRTQDECICHFLR [L40C] gave an abundance fitness of 0.108 ± 0.09. GREWTEQETLLLLEALEMYKDDWNKVSEHVGSRTQDECIIHFLR [L40I] gave an abundance fitness of -0.138 ± 0.085. With GREWTEQETLLLLEALEMYKDDWNKVSEHVGSRTQDECIQHFLR [L40Q] the abundance fitness was 0.204 ± 0.09. With GREWTEQETLLLLEALEMYKDDWNKVSEHVGSRTQDECIHHFLR [L40H] the abundance fitness was 0.201 ± 0.061. With GREWTEQETLLLLEALEMYKDDWNKVSEHVGSRTQDECIFHFLR [L40F] the abundance fitness was -0.074 ± 0.074. With GREWTEQETLLLLEALEMYKDDWNKVSEHVGSRTQDECIYHFLR [L40Y] the abundance fitness was 0.213 ± 0.079. GREWTEQETLLLLEALEMYKDDWNKVSEHVGSRTQDECIPHFLR [L40P] gave an abundance fitness of -0.299 ± 0.067. Variant GREWTEQETLLLLEALEMYKDDWNKVSEHVGSRTQDECIWHFLR [L40W] has an abundance fitness of 0.326 ± 0.14. Variant GREWTEQETLLLLEALEMYKDDWNKVSEHVGSRTQDECISHFLR [L40S] has an abundance fitness of 0.266 ± 0.057. GREWTEQETLLLLEALEMYKDDWNKVSEHVGSRTQDECIRHFLR [L40R] showed an abundance fitness of 0.157 ± 0.062.
